{"source": "patent US20200113912A1", "about": "“Methods and Compositions for the Treatment of Disease with Immune Stimulatory Conjugates” (Silverback Therapeutics, Inc., priority 2018, published 2020)", "key": {"[1]": {"assay": "Repeat-dose intravenous administration in cynomolgus monkey", "type": "in vivo", "procedure": "The monkey used in this study was purpose-bred, treatment-naïve, and housed and treated at Charles River Laboratories in Reno, Nev., in accordance with US FDA GLP regulations. The target age and weight of the animal at time of dosing was 2 to 4 years and 2.5 to 3.5 kg, respectively, and the animal used on study was female. HER2-TLR8 was evaluated on a repeat dose schedule as follows: 1 mg/kg was dosed on Day 1, followed by a 7.5 mg/kg dose administered one week later on Day 8 and a third 7.5 mg/kg dose administered three weeks later on Day 29. After each dose, the animal was observed cage-side for clinical signs and symptoms associated with dosing. […] This animal was euthanized due to the rapid onset of clinical signs of pale mucus membranes and face, hunched posture, decreased activity, hypothermia (as assessed by being cool to the touch), and labored, shallow breathing. These clinical signs presented within 2.5 hour following dosing on Day 29."}, "[2]": {"assay": "Repeat-dose subcutaneous administration in cynomolgus monkey", "type": "in vivo", "conditions": "SC", "procedure": "The monkey used in this study was purpose-bred, treatment-naïve, and housed and treated at Charles River Laboratories in Reno, Nev., in accordance with US FDA GLP regulations. The target age and weight of the animal at time of dosing was 2 to 4 years and 2.5 to 3.5 kg, respectively, and the animal used on study was female. HER2-TLR8 was evaluated on a repeat dose schedule as follows: 2 mg/kg dose was subcutaneously administered on a Q2W dosing schedule over 4 dosing cycles, 6 mg/kg was subcutaneously administered on a Q3W dosing schedule over 4 dosing cycles and 12 mg/kg was subcutaneously administered on a Q3W dosing schedule over 4 dosing cycles. After each dose, the animal was observed cage-side for clinical signs and symptoms associated with dosing."}, "[3]": {"test_system": "C-reactive protein (CRP)", "assay": "Pharmacodynamic response (CRP) after repeat SC dosing in non-human primates", "type": "in vivo, cynomolgus monkey", "conditions": "repeat-dose SC, 2, 6 and 12 mg/kg", "source_text": "Blood samples were collected by venous puncture at various timepoints and analyzed for blood chemistries, including C-reactive protein (CRP), using a standard blood analyzer."}, "[4]": {"assay": "Single-dose pharmacokinetic profile in cynomolgus monkey (serum ELISA)", "type": "in vivo", "procedure": "The pharmacokinetic profile of a single dose of HER2-TLR8 administered subcutaneously at 2, 6, or 12 mg/kg or intravenously at 7.5 mg/kg in cynomolgus monkey was studied. Blood was collected by venous puncture at a series of timepoints pre and post-dosing. Serum was prepared and HER2-TLR8 was measured by an ELISA assay in which serum samples were added to an assay plate coated with recombinant HER2 and HER2-TLR8 was detected using a labelled antibody directed against the TLR8 payload."}, "[5]": {"conditions": "10 μg per mouse, 5 minutes following second dose of HER2-TLR7 5 mg/kg", "description": "Rectal temperatures and clinical scores were assessed as previously shown."}, "[6]": {"test_system": "BMDM + SK-BR-3 (HER2pos)", "assay": "mTNFα from bone marrow derived macrophages co-cultured with SK-BR-3", "type": "cell-based, mouse", "conditions": "24 hours; conjugate 100-0.001 nM, payload 1000-0.001 nM; HER2pos SK-BR-3", "procedure": "(§1) The ability of an anti-HER2-TLR7 conjugate to specifically activate mouse macrophages when bound to tumor cells by HER2 was assessed in vitro as follows. Bone marrow cells were harvested from BALB/cJ mouse femurs and tibias using a 27-gauge needle attached to a 3 mL syringe filled with growth media (DMEM supplemented with 10% Fetal Bovine Serum, 1 mM Sodium Pyruvate, 1× GlutaMAX-1, 1× Non-Essential Amino Acids, 10 mM HEPES and 0.5% Penicillin/Streptomycin). Bone marrow cells were centrifuged, and RBC were lysed before being counted and resuspended at a concentration 5×10^5/mL in growth media. Ten mL of cell suspension was placed in 10 cm dishes and 20 ng/mL murine macrophage-colony-stimulating factor (mM-CSF) was added. […] Bone marrow derived macrophage cells lines (BMDM) and tumor cell lines SK-BR-3 (HER2pos) or MDA-MB-468 (HER2neg) were removed from plates with Accutase cell detachment solution and counted. […]\n(§2) After culture, supernatants were collected and frozen at −80° C. until cytokine analysis was performed. Murine TNFα (mTNFα) levels in the supernatant were determined by mTNFα ELISA Kit (BioLegend) and read on an Envision Plate Reader (Perkin Elmer, Waltham, Mass.) according to manufacturer's instructions. mTNFα levels were then graphed using GraphPad Prism 7.01 software (GraphPad Software, San Diego, Calif.) and EC50 values were generated using non-linear regression curve fit."}, "[7]": {"test_system": "BMDM + MDA-MB-468 (HER2neg)", "assay": "mTNFα from bone marrow derived macrophages co-cultured with MDA-MB-468", "type": "cell-based, mouse", "conditions": "24 hours; conjugate 100-0.001 nM, payload 1000-0.001 nM; HER2neg MDA-MB-468", "procedure": "as §1, §2"}}}
{"compound": "CCCN(CCC)C(=O)C1=Cc2ccc(C(=O)Nc3cnc4c(c3)CN(C(=O)OCc3ccc(NC(=O)[C@H](CCCNC(N)=O)NC(=O)[C@@H](NC(=O)CCCCCN5C(=O)C=CC5=O)C(C)C)cc3)CC4)cc2N=C(N)C1", "note": "[HER2-TLR8]", "values": [{"measurement": "anaphylaxis-like response after the first two doses", "setting": "[1]; IV bolus, 1 mg/kg Day 1 and 7.5 mg/kg Day 8", "result": "did not produce an anaphylaxis-like response"}, {"measurement": "outcome of the third intravenous dose", "setting": "[1]; IV bolus, 7.5 mg/kg Day 29", "result": "resulted in mortality"}, {"measurement": "time to presentation of clinical signs following dosing", "setting": "[1]; third IV dose, 7.5 mg/kg Day 29", "result": "≤ 2.5", "unit": "h"}, {"measurement": "tolerability", "setting": "[2]; 2 mg/kg Q2W, 6 mg/kg Q3W, 12 mg/kg Q3W, 4 dosing cycles", "result": "well-tolerated at all dose levels and through all dosing cycles"}, {"measurement": "clinical anaphylaxis-like signs or symptoms", "setting": "[2]; first or repeat dose at any dose level (2, 6, 12 mg/kg)", "result": "No clinical, anaphylaxis-like signs or symptoms were observed"}, {"measurement": "C-reactive protein (CRP) in blood", "setting": "[3]", "result": "consistent, modest elevation of C-reactive protein (CRP) with each dosing cycle"}, {"measurement": "AUC", "setting": "[4]; 7.5 mg/kg, IV, 7.5 mpk", "result": 3770, "unit": "µg·h/mL"}, {"measurement": "AUC", "setting": "[4]; subcutaneous, 2 mg/kg, SubC, 2 mpk", "result": 714, "unit": "µg·h/mL"}, {"measurement": "AUC", "setting": "[4]; subcutaneous, 6 mg/kg, SubC, 6 mpk", "result": 2400, "unit": "µg·h/mL"}, {"measurement": "AUC", "setting": "[4]; subcutaneous, 12 mg/kg, SubC, 12 mpk", "result": 3650, "unit": "µg·h/mL"}]}
{"compound": "CNC[C@H](O)c1ccc(O)c(O)c1", "note": "[epinephrine]", "values": [{"measurement": "effect on toxicity of second IV dose of HER2-TLR7", "setting": "[5]", "result": "mitigates the toxicity"}]}
{"compound": "CCOCc1nc2c(N)nc3ccccc3c2n1CC(C)(C)OCCNC(=O)C(C)(C)N", "note": "[TLR7 payload compound]", "values": [{"measurement": "activation of macrophages (mTNFα in supernatant)", "setting": "[6]", "result": "capable of potently activating the macrophages in the presence of both cell lines"}, {"measurement": "activation of macrophages (mTNFα in supernatant)", "setting": "[7]", "result": "capable of potently activating the macrophages in the presence of both cell lines"}]}
